# Assay results reported in PMC4889959 (Nucleic Acids Research, 2016).
# B1: SLX4BTB wild type, yeast two-hybrid fusion [human] / SLX4BTB wild type, yeast two-hybrid fusion [human] (parent)
# chain 1: QDKHPDRGGRTLLSLGLLVADFGAMVNNPHLSDVQFQTDSGEVLYAHKFVLYARCPLLIQYVNNEGFSAVEDGVLTQRVLLGDVSTEAARTFLHYLYTADTGLPPGLSSELSSLAHRFGVSELVHLCEQVPIATDS
# chain 2: B1 chain 1
# Variants of: B1
# Assay: yeast two-hybrid β-galactosidase assay
# Conditions: with SLX4BTB wild type, ONPG as substrate, SLX4BTB-F681R-F708R-AD + SLX4BTB-BD, parent: 710, read off a plot
row,Variant,response (OD420 reading)
1,chain 1 F22R F49R,5

# Same assay, conditions: with SLX4BTB wild type, ONPG as substrate, SLX4BTB-F708R-AD + SLX4BTB-BD, parent: 710, read off a plot
row,Variant,response (OD420 reading)
1,chain 1 F49R,5.5
